# Data reported in article PMC2690590 (2009).
# B1: C-terminal fragment of the invariant chain (positions 118–208), devoid of CLIP (domain or fragment)
# chain: LPMGALPQGPMQNATKYGNMTEDHVMHLLQNADPLKVYPPLKGSFPENLRHLKNTMETIDWKVFESWMHHWLLFEMSRHSLEQKPTDAPPK
# B2: recombinant extracellular part of human invariant chain (positions 73–208) (domain or fragment)
# chain: QQQGRLDKLTVTSQNLQLENLRMKLPKPPKPVSKMRMATPLLMQALPMGALPQGPMQNATKYGNMTEDHVMHLLQNADPLKVYPPLKGSFPENLRHLKNTMETIDWKVFESWMHHWLLFEMSRHSLEQKPTDAPPK
# Biological target: DR1: DRA*0101(1–191)/DRB1*0101(1–198) (human)
row,Binder,IC50 [nM]
1,PKYVKQNTLKLAT [influenza hemagglutinin peptide HA306–318],34
2,B1,1700
3,B2,40
4,LPKPPKPVSKMRMATPLLMQALPM [CLIP peptide fragment of the invariant chain (positions 97–120)],40
